# T1: His6-CIII (bacteriophage lambda CIII) (bacteriophage lambda), P03044
# T1 chain: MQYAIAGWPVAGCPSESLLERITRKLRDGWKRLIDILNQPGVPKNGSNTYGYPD
# B1: His6-CIII (bacteriophage lambda CIII), P03044 1-54 (natural protein)
# chain: T1 chain
# Biological target: T1, His6-CIII (bacteriophage lambda CIII) …
# Test: cross-linking; 10 µM His6-CIII in PBS with 0.1 mg/ml BSA at 42°C, 0.25% glutaraldehyde for 1 or 5 minutes, stopped by 200 mM glycine; NuPAGE and western blot against the His6 tag
# Conditions: remark: other sources report otherwise
binder,measurement,value
B1,stoichiometry N,< 12

# — article PMC1838920
